Measurements from publication PMC8232969 (Cell, 2021).

Molecular target: SARS-CoV-2 Spike-2P (stabilized S ectodomain trimer) (SARS-CoV-2, UniProt P0DTC2)
Test: cryo-EM structure

Row | Binder | stoichiometry N [Fabs per S-2P trimer]
1 | DH1047 Fab (Fab, V domains shown) VH: QVQLVQSGAEVKKPGASVQVSCQASANTFTNHYIHWVRQAPGQGLEWMGIIYPTGGNTIYAQGFQGRVTMTRDTSLNTIYLELSSLRSEDTAVYYCARDVRVDDSWSGYDLLSGGTYFDYWGQGTLVTVSS VL: not shown | 3
2 | DH1041 Fab (Fab, V domains shown) VH: EVQLVESGGGLVQPGGSLRLSCAASGVTFSSYWMSWVRQAPGKGLEWVANIRQDGSEKYSVDSVKGRFTISRDNAKNSLYLQMNSLRAEDTAVYYCARARRADNSGYYGFHFDCWGQGTLVTVSS VL: QSVLTQPPSVSGAPGQRVTISCTGSSSNIGAGYDVHWYQQLPGTAPKLLIYGNNNRPSGVPDRFSDSKSGTSASLAITRLQAEDEADYYCQSYDSSLSGWVFGGGTKLTVL | 3
